Reference: paper PMC5586252 (2017)
Where no end group is shown, it is not given here.

Key:
[1] = molecular target: T1, B′γ1 regulatory subunit (UniProt Q13362-2 1-449); assay: BLI
[2] = molecular target: PP2A-B′γ1 holoenzyme (UniProt P30153 1-589; P67775 1-309; Q13362-2 1-449); assay: BLI
[3] = molecular target: B′α regulatory subunit (UniProt Q15172 1-486); assay: BLI
[4] = molecular target: T1, B′γ1 regulatory subunit; assay: ITC

Sequence of PP2A-B′γ1 holoenzyme (P30153 whole entry, chain 1 of 3, other chains not shown): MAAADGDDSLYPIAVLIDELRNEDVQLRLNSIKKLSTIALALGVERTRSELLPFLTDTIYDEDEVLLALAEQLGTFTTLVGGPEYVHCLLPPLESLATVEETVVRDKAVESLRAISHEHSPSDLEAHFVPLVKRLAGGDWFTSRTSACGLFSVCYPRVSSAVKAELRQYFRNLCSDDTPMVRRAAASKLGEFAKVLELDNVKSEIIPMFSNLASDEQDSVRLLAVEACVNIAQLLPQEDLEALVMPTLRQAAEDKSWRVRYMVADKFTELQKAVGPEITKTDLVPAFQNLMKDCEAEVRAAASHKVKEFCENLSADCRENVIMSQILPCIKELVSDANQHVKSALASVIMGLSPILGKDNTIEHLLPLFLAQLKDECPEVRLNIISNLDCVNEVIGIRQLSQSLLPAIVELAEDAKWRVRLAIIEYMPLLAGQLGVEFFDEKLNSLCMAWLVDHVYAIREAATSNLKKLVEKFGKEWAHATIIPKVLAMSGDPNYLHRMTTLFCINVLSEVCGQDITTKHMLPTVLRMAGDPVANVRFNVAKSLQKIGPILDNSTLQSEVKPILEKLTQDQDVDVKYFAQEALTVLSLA
Sequence of PP2A-B′γ1 holoenzyme (P67775 whole entry, chain 2 of 3, other chains not shown): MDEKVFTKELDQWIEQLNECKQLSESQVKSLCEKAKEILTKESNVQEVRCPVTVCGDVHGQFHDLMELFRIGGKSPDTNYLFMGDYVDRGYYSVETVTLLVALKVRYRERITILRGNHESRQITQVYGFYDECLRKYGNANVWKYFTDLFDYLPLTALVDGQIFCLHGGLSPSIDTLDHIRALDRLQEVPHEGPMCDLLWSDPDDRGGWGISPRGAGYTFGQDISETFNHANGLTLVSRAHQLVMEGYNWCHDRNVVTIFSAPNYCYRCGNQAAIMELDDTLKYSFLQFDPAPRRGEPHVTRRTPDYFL
Sequence of B′α regulatory subunit (Q15172 whole entry): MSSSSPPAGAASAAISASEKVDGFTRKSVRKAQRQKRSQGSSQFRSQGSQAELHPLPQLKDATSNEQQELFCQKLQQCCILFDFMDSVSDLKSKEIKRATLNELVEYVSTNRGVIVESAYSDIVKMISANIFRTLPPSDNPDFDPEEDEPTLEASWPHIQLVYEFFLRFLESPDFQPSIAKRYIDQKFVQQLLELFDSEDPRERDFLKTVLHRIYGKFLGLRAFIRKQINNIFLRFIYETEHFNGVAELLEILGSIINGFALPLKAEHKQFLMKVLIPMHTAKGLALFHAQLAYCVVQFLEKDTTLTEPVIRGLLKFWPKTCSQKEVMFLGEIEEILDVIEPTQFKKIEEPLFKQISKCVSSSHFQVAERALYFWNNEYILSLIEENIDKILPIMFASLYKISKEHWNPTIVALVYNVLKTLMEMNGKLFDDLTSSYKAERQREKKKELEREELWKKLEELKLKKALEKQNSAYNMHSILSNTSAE

A Kd [1] of 530 nM and a Kd [2] of 221 nM were found for LETIPESEPSGMNRIL [GST-tagged DENND2C peptide (B′-binding motif)] in this work.

A Kd [1] of 3000 nM and a Kd [3] of 11800 nM were found for HVLYPIPESSSDSPLA [GST-tagged STON1 peptide (B′-binding motif)] in this work.

B1: native Cyk4 peptide (synthetic) (peptide)
chain: LSTIDESGS
modifications: synthetic peptide; exact ends and termini not given, the printed motif 143-LSTIDESGS-151 is used as the core
A Kd [4] of 22700 nM was found for B1 in this work.

A Kd [1] of 2100 nM, a Kd [2] of 320 nM and a Kd [3] of 1090 nM were found for YQPLECIVEETEGKLN (not fully specified) [GST-tagged ANKHD1 peptide (B′-binding motif)] in this work.

A Kd [4] of 1300 nM was found for LSTIDEEGE [Cyk4 S149E/S151E peptide (synthetic, phosphomimetic)] in this work.

A Kd [1] of 62 nM, a Kd [2] of 43 nM and a Kd [3] of 450 nM were found for LSSIPEASEYDWRNYQ [GST-tagged C3orf67 peptide (B′-binding motif)] in this work.

A Kd [4] of 1590 nM was found for NKRLSTIDEEGS [Cyk4 peptide S149E] in this work.

A Kd [1] of 161 nM and a Kd [3] of 490 nM were found for QNQFSEHDKTLYRIPE [GST-tagged TJP1 peptide (B′-binding motif)] in this work.

A Kd [1] of 340 nM, a Kd [2] of 121 nM and a Kd [3] of 197 nM were found for KLPHVLSSIAEEEHHL [GST-tagged SYT16 peptide (B′-binding motif)] in this work.

A Kd [1] of 43 nM, a Kd [2] of 34 nM and a Kd [3] of 226 nM were found for IKKLSPIIEDSREATH [GST-tagged BUB1B peptide (B′-binding motif)] in this work.

A Kd [1] of 121 nM, a Kd [2] of 310 nM and a Kd [3] of 330 nM were found for FQHNRKLESVAEEHEI [GST-tagged KIAA1524 (CIP2A) peptide (B′-binding motif)] in this work.
